Experiments:
MBP-SmMef2 [1] = biological target: T1, MBP-SmMef2 (Schistosoma mansoni, UniProt G8JE45 1-730); experiment: EMSA; 5 mM MgCl2, poly(dI-dC); LightShift kit 1x binding buffer, 2.5% glycerol, 5 mM MgCl2, 50 ng/uL poly(dI-dC), 0.05% NP-40, 180 fmol hot dsDNA, 1.4 ug protein, 20 min room temperature; 5%; settings: protein: recombinant; tags: N-terminal MBP (pMAL-c5x); chain copies: 2; label: 5' biotin on forward strand (hot); blunt
T1 sequence: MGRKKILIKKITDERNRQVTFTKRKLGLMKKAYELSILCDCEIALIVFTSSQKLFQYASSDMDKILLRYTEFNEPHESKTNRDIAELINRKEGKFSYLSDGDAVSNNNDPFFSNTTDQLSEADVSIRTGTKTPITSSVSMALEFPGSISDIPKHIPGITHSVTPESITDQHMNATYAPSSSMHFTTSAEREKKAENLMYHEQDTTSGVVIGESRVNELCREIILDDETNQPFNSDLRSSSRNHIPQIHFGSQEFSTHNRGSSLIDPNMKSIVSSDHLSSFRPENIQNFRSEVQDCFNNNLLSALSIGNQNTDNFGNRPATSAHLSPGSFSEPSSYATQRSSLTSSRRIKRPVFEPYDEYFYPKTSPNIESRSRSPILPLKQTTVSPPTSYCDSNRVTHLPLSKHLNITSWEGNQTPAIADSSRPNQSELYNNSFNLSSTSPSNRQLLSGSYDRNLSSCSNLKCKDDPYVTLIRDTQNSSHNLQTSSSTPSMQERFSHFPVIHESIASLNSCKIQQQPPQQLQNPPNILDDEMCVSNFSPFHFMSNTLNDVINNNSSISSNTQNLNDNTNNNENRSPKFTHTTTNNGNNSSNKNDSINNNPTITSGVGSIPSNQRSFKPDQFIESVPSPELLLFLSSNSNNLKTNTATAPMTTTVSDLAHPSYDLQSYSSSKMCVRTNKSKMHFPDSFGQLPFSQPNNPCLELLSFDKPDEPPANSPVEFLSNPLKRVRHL

MBP-SmMef2 [2] = biological target: T1, MBP-SmMef2; experiment: competition; 200x cold vs labeled AT12 or AT13; LightShift kit 1x binding buffer, 2.5% glycerol, 5 mM MgCl2, 50 ng/uL poly(dI-dC), 0.05% NP-40, 180 fmol hot dsDNA, 1.4 ug protein, 20 min room temperature; 5%; settings: protein: recombinant; tags: N-terminal MBP (pMAL-c5x); chain copies: 2; blunt

Binder | binding result (MBP-SmMef2 [1]) | binding result (MBP-SmMef2 [2])
AT13 (M. polymorpha Mef2 site) (dsDNA) DNA 1: GCTGAAGGATCTATATATAGGCGGATCGGC DNA 2: GCCGATCCGCCTATATATAGATCCTTCAGC | binds | –
AT12 (common Mef2 consensus) (dsDNA) DNA 1: GCTGAAGGATCTAAAAATAGGCGGATCGGC DNA 2: GCCGATCCGCCTATTTTTAGATCCTTCAGC | binds | –
AT14 (Ndt80 MSE negative control) (dsDNA) DNA 1: GCTGAAGGATGTCACAAAATGCGGATCGGC DNA 2: GCCGATCCGCATTTTGTGACATCCTTCAGC | – | no binding
AT11 (Drosophila Actin57B Mef2 site) (dsDNA) DNA 1: GCTGAAGGATCTATTTTTAGGCGGATCGGC DNA 2: GCCGATCCGCCTAAAAATAGATCCTTCAGC | binds | –

From publication PMC3250504, “Identification and Characterization of a Mef2 Transcriptional Activator in Schistosome Parasites”
